# Assay results taken from paper PMC6503762.
# Biological target: MSBI1.176 Rep WH1 domain (residues 1-135) (MSBI1.176 (bovine meat and milk factor DNA isolated from a brain sample of a human patient with multiple sclerosis))
# Assay: crystal structure; hanging-drop vapor diffusion at 18°C, 1:1 protein (5 mg/ml in 25 mM Tris-HCl pH 7.6, 300 mM NaCl) and 0.2 M magnesium acetate, 20% PEG 3350; S-SAD phasing; 1.53 Å; one dimer in the asymmetric unit
substance,measurement,value
MSBI1.176 Rep WH1 domain (residues 1-135) (domain or fragment),stoichiometry N,2
